Reference: the supplement of paper PMC11246515
± gives the standard deviation of the averaged measurements.

Assay: total protein half-life in vivo (active degradation + dilution); higher = more stable protein
[1] = wild type E. coli NCM3722, growth: C-lim chemostat, doubling time 3 h
[2] = wild type E. coli NCM3722, growth: C-lim chemostat, doubling time 12 h
[3] = wild type E. coli NCM3722, growth: N-lim chemostat, doubling time 6 h
[4] = wild type E. coli NCM3722, growth: N-lim chemostat, doubling time 12 h
[5] = E. coli NCM3722 delta-clpP delta-lon delta-hslV, growth: N-lim chemostat, doubling time 6 h
[6] = E. coli NCM3722 delta-clpP, growth: N-lim chemostat, doubling time 6 h
[7] = E. coli NCM3722 delta-hslV, growth: N-lim chemostat, doubling time 6 h
[8] = E. coli NCM3722 delta-lon, growth: N-lim chemostat, doubling time 6 h
[9] = E. coli NCM3722 delta-smpB, growth: N-lim chemostat, doubling time 6 h
[10] = wild type E. coli NCM3722, growth: C-lim chemostat, doubling time 6 h
[11] = wild type E. coli NCM3722, growth: P-lim chemostat, doubling time 6 h
[12] = wild type E. coli NCM3722, growth: P-lim chemostat, doubling time 12 h

Sequence | total protein half-life in vivo [1] [h] | total protein half-life in vivo [2] [h] | total protein half-life in vivo [3] [h] | total protein half-life in vivo [4] [h] | total protein half-life in vivo [5] [h] | total protein half-life in vivo [6] [h] | total protein half-life in vivo [7] [h] | total protein half-life in vivo [8] [h] | total protein half-life in vivo [9] [h] | total protein half-life in vivo [10] [h] | total protein half-life in vivo [11] [h] | total protein half-life in vivo [12] [h]
MENNRNFPARQFHSLTFFAGLCIGITPVAQALAAEGQTNADDTLVVEASTPSLYAPQQSADPKFSRPVADTTRTMTVISEQVIKDQGATNLTDALKNVPGVGAFFAGENGNSTTGDAIYMRGADTSNSIYIDGIRDIGSVSRDTFNTEQVEVIKGPSGTDYGRSAPTGSINMISKQPRNDSGIDASASIGSAWFRRGTLDVNQVIGDTTAVRLNVMGEKTHDAGRDKVKNERYGVAPSVAFGLGTANRLYLNYLHVTQHNTPDGGIPTIGLPGYSAPSAGTAALNHSGKVDTHNFYGTDSDYDDSTTDTATMRFEHDINDNTTIRNTTRWSRVKQDYLMTAIMGGASNITQPTSDVNSWTWSRTANTKDVSNKILTNQTNLTSTFYTGSIGHDVSTGVEFTRETQTNYGVNPVTLPAVNIYHPDSSIHPGGLTRNGANANGQTDTFAIYAFDTLQITRDFELNGGIRLDNYHTEYDSATACGGSGRGAITCPTGVAKGSPVTTVDTAKSGNLMNWKAGALYHLTENGNVYINYAVSQQPPGGNNFALAQSGSGNSANRTDFKPQKANTSEIGTKWQVLDKRLLLTAALFRTDIENEVEQNDDGTYSQYGKKRVEGYEISVAGNITPAWQVIGGYTQQKATIKNGKDVAQDGSSSLPYTPEHAFTLWSQYQATDDISVGAGARYIGSMHKGSDGAVGTPAFTEGYWVADAKLGYRVNRNLDFQLNVYNLFDTDYVASINKSGYRYHPGEPRTFLLTANMHF | 3.14 ± 0.17 | > 16 | > 8 | > 16 | – | – | – | – | – | – | – | –
MEPKTKKQRSLYIPYAGPVLLEFPLLNKGSAFSMEERRNFNLLGLLPEVVETIEEQAERAWIQYQGFKTEIDKHIYLRNIQDTNETLFYRLVNNHLDEMMPVIYTPTVGAACERFSEIYRRSRGVFISYQNRHNMDDILQNVPNHNIKVIVVTDGERILGLGDQGIGGMGIPIGKLSLYTACGGISPAYTLPVVLDVGTNNQQLLNDPLYMGWRNPRITDDEYYEFVDEFIQAVKQRWPDVLLQFEDFAQKNAMPLLNRYRNEICSFNDDIQGTAAVTVGTLIAASRAAGGQLSEKKIVFLGAGSAGCGIAEMIISQTQREGLSEEAARQKVFMVDRFGLLTDKMPNLLPFQTKLVQKRENLSDWDTDSDVLSLLDVVRNVKPDILIGVSGQTGLFTEEIIREMHKHCPRPIVMPLSNPTSRVEATPQDIIAWTEGNALVATGSPFNPVVWKDKIYPIAQCNNAFIFPGIGLGVIASGASRITDEMLMSASETLAQYSPLVLNGEGMVLPELKDIQKVSRAIAFAVGKMAQQQGVAVKTSAEALQQAIDDNFWQAEYRDYRRTSI | 3.1 ± 0.2 | 10.8 ± 0.22 | 5.23 ± 0.31 | 10.8 ± 0.32 | 6.33 ± 0.63 | 6.5 ± 0.58 | 5.686 ± 0.037 | 6.01 ± 0.3 | 6.06 ± 0.73 | 5.94 ± 0.31 | 6.05 ± 0.42 | 12.1 ± 0.8
MEQAHTQLIAQLNERILAADNTPLYIKFAETVKNAVRSGVLEHGNILPGERDLSQLTGVSRITVRKAMQALEEEGVVTRSRGYGTQINNIFEYSLKEARGFSQQVVLRGKKPDTLWVNKRVVKCPEEVAQQLAVEAGSDVFLLKRIRYVDEEAVSIEESWVPAHLIHDVDAIGISLYDYFRSQHIYPQRTRSRVSARMPDAEFQSHIQLDSKIPVLVIKQVALDQQQRPIEYSISHCRSDLYVFVCEE [P0ACM5] | 2.75 ± 0.084 | 8.6 ± 0.18 | 4.04 ± 0.17 | 6.99 ± 0.2 | 5.72 ± 0.0036 | – | 4.14 ± 0.2 | 4.55 ± 0.12 | 3.91 ± 0.15 | 4.84 ± 0.37 | 4.28 ± 0.053 | 7.99 ± 0.19
MEQPVIPVRNIYYMLTYAWGYLQEIKQANLEAIPGNNLLDILGYVLNKGVLQLSRRGLELDYNPNTEIIPGIKGRIEFAKTIRGFHLNHGKTVSTFDMLNEDTLANRIIKSTLAILIKHEKLNSTIRDEARSLYRKLPGISTLHLTPQHFSYLNGGKNTRYYKFVISVCKFIVNNSIPGQNKGHYRFYDFERNEKEMSLLYQKFLYEFCRRELTSANTTRSYLKWDASSISDQSLNLLPRMETDITIRSSEKILIVDAKYYKSIFSRRMGTEKFHSQNLYQLMNYLWSLKPENGENIGGLLIYPHVDTAVKHRYKINGFDIGLCTVNLGQEWPCIHQELLDIFDEYLK | 3.05 ± 0.89 | > 16 | – | – | – | – | – | – | – | 5.31 | 5.09 ± 0.42 | 7.9 ± 0.14
MEQVVIVDAIRTPMGRSKGGAFRNVRAEDLSAHLMRSLLARNPALEAAALDDIYWGCVQQTLEQGFNIARNAALLAEVPHSVPAVTVNRLCGSSMQALHDAARMIMTGDAQACLVGGVEHMGHVPMSHGVDFHPGLSRNVAKAAGMMGLTAEMLARMHGISREMQDAFAARSHARAWAATQSAAFKNEIIPTGGHDADGVLKQFNYDEVIRPETTVEALATLRPAFDPVNGMVTAGTSSALSDGAAAMLVMSESRAHELGLKPRARVRSMAVVGCDPSIMGYGPVPASKLALKKAGLSASDIGVFEMNEAFAAQILPCIKDLGLIEQIDEKINLNGGAIALGHPLGCSGARISTTLLNLMERKDVQFGLATMCIGLGQGIATVFERV | 3.36 ± 0.57 | 9.67 ± 0.97 | 3.18 ± 0.39 | 4.39 ± 0.12 | 4.38 ± 0.27 | 3.05 ± 0.081 | 2.922 ± 0.023 | 2.52 ± 0.046 | 3.22 ± 0.013 | 5 ± 0.57 | 5.97 ± 0.56 | 11.5 ± 0.95
MERFLENAMYASRWLLAPVYFGLSLALVALALKFFQEIIHVLPNIFSMAESDLILVLLSLVDMTLVGGLLVMVMFSGYENFVSQLDISENKEKLNWLGKMDATSLKNKVAASIVAISSIHLLRVFMDAKNVPDNKLMWYVIIHLTFVLSAFVMGYLDRLTRHNH | 2.92 ± 0.05 | 11.8 ± 1.8 | 4.99 ± 0.67 | – | – | – | – | 6.103 ± 0.048 | 5.64 ± 0.26 | – | 5.88 | 10.6
MERLLIVNADDFGLSKGQNYGIIEACRNGIVTSTTALVNGQAIDHAVQLSRDEPSLAIGMHFVLTMGKPLTAMPGLTRDGVLGKWIWQLAEEDALPLEEITQELVSQYLRFIELFGRKPTHLDSHHHVHMFPQIFPIVARFAAEQGIALRADRQMAFDLPVNLRTTQGFSSAFYGEEISESLFLQVLDDAGHRGDRSLEVMCHPAFIDNTIRQSAYCFPRLTELDVLTSASLKGAIAQRGYRLGSYRDV | 2.86 ± 0.21 | 7.9 ± 0.51 | 3.27 ± 0.43 | 4.74 ± 0.26 | – | 3.19 ± 0.45 | 3.38 | 3.55 ± 0.42 | 2.945 ± 0.014 | 4.51 ± 0.39 | 5.12 ± 0.14 | 10.1 ± 0.26
